Measurements taken from FireProtDB (doi:10.1016/s0014-5793(99)00158-1).

B1: Ribonuclease wild type, P00649 (protein)
chain: MKKISSVFTMFALIAAILFSGFIPQQAYAETPLTQTATNETATIQLTSDVHTLAVINTFDGVADYLIRYKRLPDNYITKSQASALGWVASKGNLAEVAPGKSIGGDVFSNREGRLPSASGRTWREADINYVSGFRNADRLVYSSDWLIYKTTDHYATFTRIR
B2: Barstar wild type, P11540 (protein)
chain: MKKAVINGEQIRSISDLHQTLKKELALPEYYGENLDALWDCLTGWVEYPLVLEWRQFEQSKQLTENGAESVLQVFREAKAEGCDITIILS
B3: Ribonuclease wild type, P00648 (protein)
chain: MMKMEGIALKKRLSWISVCLLVLVSAAGMLFSTAAKTETSSHKAHTEAQVINTFDGVADYLQTYHKLPDNYITKSEAQALGWVASKGNLADVAPGKSIGGDIFSNREGKLPGKSGRTWREADINYTSGFRNSDRILYSSDWLIYKTTDHYQTFTKIR

Settings: pH 6.2, Thermal, DSC, Na-acetate 10 mM, NaCl 0.05 M, reversible: yes, whole UniProt chain shown

Row | Protein | Tm (Bacillus intermedius) [°C] | unfolding enthalpy (calorimetric) (Bacillus intermedius) [kcal/mol] | unfolding enthalpy (van 't Hoff) (Bacillus intermedius) [kcal/mol] | Tm (Bacillus amyloliquefaciens) [°C] | unfolding enthalpy (calorimetric) (Bacillus amyloliquefaciens) [kcal/mol] | unfolding enthalpy (van 't Hoff) (Bacillus amyloliquefaciens) [kcal/mol]
1 | B1 | 56.5 | 124 | 126 | – | – | –
2 | B2 | – | – | – | 73.3 | 53 | 76
3 | B3 | – | – | – | 54.5 | 129 | 130
